# Target: RBD (UniProt P0DTC2 319-541)
# Test: SPR
binder,measurement,value
Nb21 (VHH) VHH: QVQLVESGGGLVQAGGSLRLSCAVSGLGAHRVGWFRRAPGKEREFVAAIGANGGNTNYLDSVKGRFTISRDNAKNTIYLQMNSLKPQDTAVYYCAARDIETAEYTYWGQGTQVTVSS,Kd,< 1 pM

# — US20250002563A1 (published 2025)
